{
  "source": "patent US10450573B2",
  "about": "“Compositions and methods for regulation of gene expression with, and detection of, folinic acid and folates” (The Board of Trustees of the Leland Stanford Junior …, priority 2014, dated 2019)",
  "key": {"[1]": {"assay": "Surface plasmon resonance aptamer binding assay, (6R)-folinic acid", "conditions": "for Selectivity: between (6R)- and (6S)-folinic acid diastereomers", "procedure": "(§1) Surface plasmon resonance characterization of aptamer binding properties. Nucleic acid aptamer preparation. RNA aptamers were prepared by PCR amplification of DNA template sequences (Table 4, Integrated DNA Technologies, Coralville, Iowa) using forward and reverse primers Biacore-fwd and Biacore-rev, respectively, followed by transcription of the PCR product using the MEGAshortscript T7 transcription kit (Life Technologies) and purification of the transcription product using the RNA Clean & Concentrator kit (Zymo Research, Irvine, Calif.), according to the manufacturers' instructions. Aptamers were resuspended in selection buffer, denatured at 65° C. for 5 min, and cooled to room temperature directly before use.\n(§2) Sensor chip surface generation. Experiments were performed on a Biacore X100 instrument (GE Healthcare) at 25° C. A CM5 sensor chip (GE Healthcare) was equilibrated with HBS-N buffer. The DNA linker strand (5′-AmMC6-[…]) (Integrated DNA Technologies) (SEQ ID NO:133), with an amino modified 6-carbon linker on the 5′ end, was immobilized to the chip surface. The carboxymethylated dextran surface of the CM5 chip was activated for 7 min at a flow rate of 10 μL/min using a 1:1 volume ratio of 0.4 M 1-ethyl-3-(3-dimethylaminopropyl) carbodiimide (GE Healthcare) and 0.1 M N-hydroxysuccinimide (GE Healthcare). A molar ratio of 1:30 of DNA strand to hexadecyltrimethylammonium bromide (Sigma-Aldrich, St. Louis, Mo.) was diluted in 10 mM HEPES buffer (Sigma-Aldrich) to a final concentration of 20 μM and 0.6 mM, respectively, and injected over the activated surface for 10 min at a flow rate of 5 μL/min. Excess activated groups were blocked by an injection of 1 M ethanolamine (GE Healthcare), pH 8.5, for 7 min at a flow rate of 10 μL/min. The immobilization reaction was performed sequentially on both flow cells (FC1, FC2) and yielded approximately 4,000 RU of the DNA strand.\n(§3) Aptamer binding assay. The Biacore X100 instrument was primed three times with running buffer prior to all binding assays. For each assay, three startup cycles were performed to stabilize the sensorgram baseline. For each startup cycle, the aptamer (˜40-70 ng/μL, ˜3 μM) was captured onto the sample flow cell (FC2) for 40 s at a flow rate of 5 μL/min. 25 mM NaOH (GE Healthcare) was injected for 30 s at a flow rate of 30 μL/min over both flow cells to regenerate the sensor surface. A dilution series of (6R)- or (6S)-folinic acid (Schircks Laboratories, Jona, Switzerland) was prepared in selection buffer and filtered through a 0.2 μm membrane (Pall Corporation, Port Washington, N.Y.). For each concentration sample, the aptamer was captured onto the sample flow cell (FC2) for 40 s at a flow rate of 5 μL/min, the folinic acid solution was injected over both flow cells at a flow rate of 30 μL/min to monitor target association, and selection buffer was injected over both flow cells at a flow rate of 30 μL/min to monitor target dissociation. Association and dissociation phase lengths used were chosen based on time needed to reach equilibrium. Aptamer and folinic acid were removed from the sensor surface by injecting 25 mM NaOH for 30 s at a flow rate of 30 μL/min over both flow cells.\n(§4) Data processing and analysis were performed using Biacore X100 Evaluation Software version 2.0 (GE Healthcare). A double-referencing method was performed to process all datasets. Data from the sample flow cell (FC2) were referenced first by subtracting data from the reference flow cell (FC1) to correct for bulk refractive index changes, nonspecific binding, injection noise, matrix effects, and baseline drift. Reference-subtracted data (FC2−FC1) were double-referenced with a blank injection of running buffer to account for any systematic drift over the course of the injection. Double-referenced data were fit to a 1:1 binding model for kinetic analysis or steady-state affinity model for thermodynamic analysis. […]"}, "[2]": {"assay": "Surface plasmon resonance aptamer binding assay, (6S)-folinic acid", "conditions": "SPR, 25° C., selection buffer pH 7.4, 5 mM MgCl2", "procedure": "as §1, §2, §3, §4"}, "[3]": {"assay": "SPR equilibrium binding to folate derivative (6R)-tetrahydrobiopterin", "conditions": "N.D. = non-detectable levels of binding, read-out: KD, (6R)-Tetrahydrobiopterin (THB)"}, "[4]": {"assay": "SPR binding to (6R,S)-5-methyl-5,6,7,8-tetrahydrofolic acid", "conditions": "ligand is mixture of (6R) and (6S) diastereomers, read-out: KD, (6R,S)-5-methyl-THF"}, "[5]": {"assay": "SPR binding to (6R,S)-5-formyl-5,6,7,8-tetrahydropteroic acid", "conditions": "ligand is mixture of (6R) and (6S) diastereomers"}, "[6]": {"assay": "SPR screen of truncated or mutated aptamers for folinic acid binding (qualitative)", "procedure": "Full length sequences were amplified off of sequencing PCR products using primers N70-fwd-short and Biacore-N70-rev to append a poly(A) tail. Truncated or mutated sequences were synthesized by Integrated DNA Technologies or the Protein and Nucleic Acid facility (Stanford, Calif.).\nas §1\nSensor chip surface generation. Experiments were performed on a Biacore X100 instrument (GE Healthcare) at 25° C. A CM5 sensor chip (GE Healthcare) was equilibrated with HBS-N buffer. The DNA linker strand (5′-AmMC6-[…]) (Integrated DNA Technologies) (SEQ ID NO:133), with an amino modified 6-carbon linker on the 5′ end, was immobilized to the chip surface. […]"}, "GFP expression [7]": {"tested_on": "GFP expression", "assay": "Gene-regulatory activity of ribozyme-based switches in yeast (GFP, flow cytometry)", "assay_type": "cell-based, Saccharomyces cerevisiae", "conditions": "normalized to sTRSV Contl", "procedure": "Plasmid and strain construction. Standard molecular biology cloning techniques were used to construct all plasmids. DNA synthesis was performed by Integrated DNA Technologies (Coralville, Iowa) or the Protein and Nucleic Acid Facility (Stanford, Calif.). All enzymes, including restriction enzymes and ligases, were obtained through New England Biolabs (Ipswich, Mass.). Ligation products were electroporated with a GenePulser XCell (Bio-Rad, Hercules, Calif.) into an E. coli DH10B strain (Invitrogen, Carlsbad, Calif.), where cells harboring cloned plasmids were maintained in Luria-Bertani media containing 50 μg/mL ampicillin (EMD Chemicals, Philadelphia, Pa.). […]\nThe two-color screening plasmid pCS1748; single-color plasmids harboring GFP (pCS1585) and mCherry (pCS1749) for use as compensation controls; and no-color plasmid pCS4, containing no fluorescence reporter gene, was used as the negative-control construct. […]\nCell sorting screen for functional ligand-responsive RNA switches. […] Transformation efficiencies were determined by plating serial dilutions of the transformants, and transformed cells were propagated in SC-URA media for FACS.\nTwo-color FACS-based screen. […] GFP was excited at 488 nm and measured with a splitter of 505 nm and bandpass filter of 525/50 nm. mCherry was excited at 532 nm and measured with a splitter of 600 nm and a bandpass filter of 610/20 nm. […]"}, "GFP expression [8]": {"tested_on": "GFP expression", "assay": "miRNA switch silencing activity on GFP in mammalian cells", "assay_type": "cell-based", "conditions": "folinic acid", "description": "Ligand-responsive, microRNA (miRNA) switches have been developed that modulate Drosha processing. These switches integrate an aptamer into the basal segments of a miRNA. Internal loop size contained within the basal segments affects Drosha processing and therefore the levels of miRNA-mediated gene silencing. By integrating an aptamer within the basal segments, unbound aptamer can remain relatively unstructured, while ligand binding can sequester nucleotides involved in binding and inhibit Drosha processing.\nAptamer integration into this switch platform requires two integration stems; therefore, aptamer FA8-3 was chosen. Separate studies on using this aptamer in a transmitter-based switch observe that an internal loop within the aptamer could be expanded while retaining ligand binding ability. This loop was expanded to the previously identified optimal loop size and integrated into the miRNA switch that targets GFP. A single copy of the miRNA switch enables up to 2.1-fold change in GFP expression (FIG. 26b); including two copies yields up to 2.6-fold change (FIG. 26c). Additional copies of the switch would be expected to further increase the achievable activation ratio, as would specific use of (6R)-folinic acid."}, "[9]": {"conditions": "SPR, 1:1 binding model, 25° C., selection buffer pH 7.4, 5 mM MgCl2"}, "[10]": {"conditions": "SPR, 25° C., selection buffer pH 7.4, 5 mM MgCl2"}},
  "data": [
    {"molecule": "tFA8-3: truncated (6R)-FA specific RNA aptamer, SEQ ID NO: 19 (nucleic acid, unmodified RNA) UUUGCCAACGUCUGGUCACGACCGUAGUACACUACCCCUCGAAAUCACGAGGGAGACGAGAUAGGCGGA", "values": [
      {"measurement": "ka, (6R)-Folinic Acid", "setting": "[1]; [9]", "result": 459000, "unit": "M⁻¹ s⁻¹"},
      {"measurement": "kd, (6R)-Folinic Acid", "setting": "[1]; [9]", "result": 0.0217, "unit": "s⁻¹"},
      {"measurement": "Kd", "setting": "[1]; [10]", "result": 0.0473, "unit": "µM"},
      {"measurement": "Selectivity", "setting": "[1]", "result": 606},
      {"measurement": "Kd", "setting": "[2]", "result": 28.6, "unit": "µM"},
      {"measurement": "Kd", "setting": "[3]", "result": 1.6, "unit": "µM"},
      {"measurement": "Kd", "setting": "[4]", "result": 0.158, "unit": "µM"},
      {"measurement": "ka, (6R,S)-5-formyl-THPteroic Acid", "setting": "[5]", "result": 305000, "unit": "M⁻¹ s⁻¹"},
      {"measurement": "kd, (6R,S)-5-formyl-THPteroic Acid", "setting": "[5]", "result": 0.0292, "unit": "s⁻¹"},
      {"measurement": "Kd", "setting": "[5]; read-out: KD, (6R,S)-5-formyl-THPteroic Acid", "result": 0.0957, "unit": "µM"}
    ]},
    {"molecule": "tFA8-14: truncated (6S)-FA specific RNA aptamer, SEQ ID NO: 25 (nucleic acid, unmodified RNA) CCGCGCAAGUGCAUUAACGGUGACACCGAAAGCUGGAAAGCCUGACAUCGAACGCAAAAGGCUGCGUGG", "values": [
      {"measurement": "Kd", "setting": "[1]; [10]", "result": 10200, "unit": "µM"},
      {"measurement": "Selectivity", "setting": "[1]", "result": "71,100"},
      {"measurement": "ka, (6S)-Folinic Acid", "setting": "[2]; 1:1 binding model", "result": 89200, "unit": "M⁻¹ s⁻¹"},
      {"measurement": "kd, (6S)-Folinic Acid", "setting": "[2]; 1:1 binding model", "result": 0.0128, "unit": "s⁻¹"},
      {"measurement": "Kd", "setting": "[2]", "result": 0.144, "unit": "µM"},
      {"measurement": "folinic acid binding (qualitative)", "setting": "[6]", "result": "maintains binding"}
    ]},
    {"molecule": "L2b8: parent theophylline-responsive ribozyme switch, SEQ ID NO: 43 (nucleic acid, listed as DNA, chemistry not fully specified) AAACAAACAAAGCTGTCACCGGATGTGCTTTCCGGTCTGATGAGTCCGTTGTCCATACCAGCATCGTCTTGATGCCCTTGGCAGGGACGGGACGGAGGACGAAACAGCAAAAAGAAAAATAAAAA", "values": [
      {"measurement": "normalized GFP expression", "setting": "GFP expression [7]; absence of theophylline", "result": "~10.8", "unit": "%"},
      {"measurement": "normalized GFP expression", "setting": "GFP expression [7]; presence of 5 mM theophylline", "result": "~36.7", "unit": "%"}
    ]},
    {"molecule": "miRNA switch: folinic acid-responsive miRNA switch with aptamer FA8-3 that targets GFP, SEQ ID NO: 57 (nucleic acid, Synthetic nucleic acid) AATAACCGGTGCGATCGCGAACGGGTCCTCACTACCCCTCGAAATCACGAGGGAGACGAGATAAGAGCGACGGCGGAGCGAGCACAAGCTGGAGTACAACTATAGTGAAGCCACAGATGTATAGTTGTACTCCAGCTTGTGCCCGCCTTGCCAACCATAACGTCTGGTCACGACCGTAGTAAGGGCCCGTTTTTAATTAAATCGATTATT", "values": [
      {"measurement": "change in GFP expression", "setting": "GFP expression [8]; single copy of the miRNA switch", "result": "up to 2.1 fold"},
      {"measurement": "change in GFP expression", "setting": "GFP expression [8]; two copies of the miRNA switch", "result": "up to 2.6 fold"}
    ]}
  ]
}
